Patent publication US20250171536A1 (CSL INNOVATION, published 2025)
Each block holds one binder with its values, some of them ahead of it.

Key:
[1] = target: T1, Cynomolgus monkey CD117, expressed on HEK293FS cells (cynomolgus monkey, UniProt P10721 26-976 (human entry)); test: flow cytometry on HEK293FS cells expressing cynomolgus CD117, IgG1 format, signal of parental cells subtracted
T1 construct: The construct transfected is not further described; also called cyno CD117
T1 chain: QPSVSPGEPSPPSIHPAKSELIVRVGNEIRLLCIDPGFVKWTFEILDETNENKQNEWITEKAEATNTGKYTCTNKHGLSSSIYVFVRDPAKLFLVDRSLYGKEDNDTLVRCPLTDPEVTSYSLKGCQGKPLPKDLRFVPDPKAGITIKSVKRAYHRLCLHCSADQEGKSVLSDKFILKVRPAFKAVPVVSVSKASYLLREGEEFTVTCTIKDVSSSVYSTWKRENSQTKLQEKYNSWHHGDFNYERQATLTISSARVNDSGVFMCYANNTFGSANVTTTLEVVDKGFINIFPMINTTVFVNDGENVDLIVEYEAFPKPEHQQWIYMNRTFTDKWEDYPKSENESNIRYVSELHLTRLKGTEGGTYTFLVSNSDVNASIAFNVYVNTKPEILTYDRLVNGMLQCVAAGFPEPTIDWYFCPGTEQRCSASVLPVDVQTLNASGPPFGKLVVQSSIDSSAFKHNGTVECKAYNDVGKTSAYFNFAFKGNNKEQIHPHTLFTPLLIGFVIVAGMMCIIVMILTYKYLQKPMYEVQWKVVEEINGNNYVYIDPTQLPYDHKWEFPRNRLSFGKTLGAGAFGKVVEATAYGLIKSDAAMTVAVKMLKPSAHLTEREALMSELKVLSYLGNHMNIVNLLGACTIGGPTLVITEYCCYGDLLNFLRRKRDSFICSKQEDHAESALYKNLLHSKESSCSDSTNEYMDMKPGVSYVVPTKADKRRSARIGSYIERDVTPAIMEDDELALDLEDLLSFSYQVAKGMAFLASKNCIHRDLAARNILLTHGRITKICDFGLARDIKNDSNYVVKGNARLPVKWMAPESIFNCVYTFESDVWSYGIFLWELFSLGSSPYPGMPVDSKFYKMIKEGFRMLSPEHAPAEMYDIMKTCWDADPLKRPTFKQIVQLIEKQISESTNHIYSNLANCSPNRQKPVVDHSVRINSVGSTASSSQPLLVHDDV
Procedure: (§1) After a one hour incubation on ice, cells were washed once prior to fixation.
(§2) Mean fluorescence intensities (MFI) were obtained using Flowjo v10 and analysed using GraphPad Prism. Total binding curves for TF-1 cells and specific binding curves for HEK293FS expressing CD117 (generated by subtracting non-specific binding to parental cells) were plotted. EC50 values for each anti-CD117-IgG1 antibody tested was determined using a non-linear regression model.

[2] = target: T2, Human CD117 (c-kit), cell-surface expressed (human, UniProt P10721 26-976); test: flow cytometry on HEK293FS cells expressing human CD117, IgG1 format, signal of parental cells subtracted
T2 construct: also called hCD117; SCFR
Procedure: as §1, §2

[3] = target: T2, Human CD117 (c-kit), cell-surface …; test: flow cytometry on TF-1 cells, IgG1 format, anti-human IgG Fab-AF488, total binding
Procedure: as §1, §2

[4] = target: N-terminal domain of human CD117, soluble (HuCD117 1-308) (human, UniProt P10721 26-308); test: SPR Biacore 4000, captured antibody, soluble CD117 analyte, 1:1 fit;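 also: antibodies captured on CM5 chips via goat anti-human IgG or IgA, CD117 analyte in two-fold series 0.8–200 nM, run at pH 7.3 and 37 °C, double-referenced sensorgrams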
Procedure: (§3) Biacore 4000 was used for all binding analyses. Experiments were performed at pH 7.3, 37° C. and under flow rate of 30 μL/min. Human anti-CD117 antibodies were surface captured using either polyclonal goat anti-human IgG or IgA antibodies directly immobilised onto the carboxymethyl dextran surface of CM5 sensorchips to approximately 13,000 RU using standard NHS/EDC chemistry at pH 5. The immobilised antibody surface was pre-conditioned with ten injections of human polyclonal IgG (Privigen 60s, 10 μg/mL) each followed by a regeneration cycle with 100 mM H3PO4.
(§4) A total of 18 anti-CD117 antibodies (2 μg/mL) were tested as captured ligands against four soluble mammalian CD117 receptor variants: the N-terminal domain of human CD117 (HuCD1₁₇₁₋₃₀₈), full length human CD117 (HuCD1₁₇₁₋₅₂₄), cyno CD117 (cynoCD117₁₋₅₂₀), and murine CD117 (MuCD117₁₋₅₂₇).
(§5) CD117 proteins were prepared in two-fold dilutions ranging from 0.8 to 200 nM. Anti-CD117 antibodies huAb249, huAb85, huCK6 and huhzSR1 were used as positive controls. BM4 was prepared in an IgG and IgA2 format and used as negative control. Binding affinities were calculated from sensorgrams double-referenced using reference surface and blank buffer injection data gathered within each experiment.

[5] = target: T3, Full length human CD117, soluble (HuCD117 1-524) (human, UniProt P10721 26-524); test: as above
T3 construct: also called full-length protein
Procedure: as §3, §4, §5

[6] = target: T4, Cyno CD117, soluble (cynoCD117 1-520) (cynomolgus monkey, UniProt P10721 26-520 (human entry)); test: as above
T4 construct: Residues as printed
T4 chain: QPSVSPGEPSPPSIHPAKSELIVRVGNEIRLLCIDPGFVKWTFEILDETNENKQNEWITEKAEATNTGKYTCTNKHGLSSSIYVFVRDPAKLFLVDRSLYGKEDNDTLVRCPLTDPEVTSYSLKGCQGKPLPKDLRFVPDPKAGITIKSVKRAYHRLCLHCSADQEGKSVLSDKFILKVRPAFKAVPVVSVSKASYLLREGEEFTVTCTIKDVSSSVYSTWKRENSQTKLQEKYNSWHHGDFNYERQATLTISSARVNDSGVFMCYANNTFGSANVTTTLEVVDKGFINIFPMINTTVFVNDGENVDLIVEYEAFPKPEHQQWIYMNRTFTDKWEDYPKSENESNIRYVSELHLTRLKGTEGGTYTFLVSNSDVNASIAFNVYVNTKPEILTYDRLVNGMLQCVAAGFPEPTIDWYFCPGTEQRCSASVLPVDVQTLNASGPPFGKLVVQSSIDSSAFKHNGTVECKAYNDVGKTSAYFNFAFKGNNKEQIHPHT
Procedure: as §3, §4, §5

[7] = target: T5, Murine CD117, soluble (MuCD117 1-527) (mouse, UniProt P05532 25-527); test: SPR, captured antibody, soluble CD117 analyte
T5 construct: Residues as printed
T5 sequence: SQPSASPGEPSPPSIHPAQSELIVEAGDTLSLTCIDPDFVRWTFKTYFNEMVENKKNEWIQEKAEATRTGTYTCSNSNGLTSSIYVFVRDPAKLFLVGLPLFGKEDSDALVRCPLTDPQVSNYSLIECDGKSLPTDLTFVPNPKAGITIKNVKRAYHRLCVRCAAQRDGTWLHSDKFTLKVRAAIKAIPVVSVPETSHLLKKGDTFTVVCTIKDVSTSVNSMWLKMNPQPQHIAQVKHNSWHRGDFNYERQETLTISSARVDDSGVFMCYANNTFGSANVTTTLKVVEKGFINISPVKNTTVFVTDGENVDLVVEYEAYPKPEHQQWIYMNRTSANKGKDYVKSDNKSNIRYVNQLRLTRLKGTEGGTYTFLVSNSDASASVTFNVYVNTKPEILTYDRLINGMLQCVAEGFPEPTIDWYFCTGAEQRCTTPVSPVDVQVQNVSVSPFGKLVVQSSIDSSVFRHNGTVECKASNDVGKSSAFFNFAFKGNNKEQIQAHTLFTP
Procedure: as §3, §4, §5

[8] = target: T3, Full length human CD117, soluble …; test: SPR Biacore 4000, captured antibody, soluble CD117 analyte
Procedure: as §3, §4, §5

[9] = target: T4, Cyno CD117, soluble (cynoCD117 1-520); test: as above
Procedure: as §3, §4, §5

[10] = target: T1, Cynomolgus monkey CD117, expressed on …; test: flow cytometry on HEK293FS cells expressing cynomolgus CD117, IgG1 format, signal of parental cells subtracted [F]
Procedure: as §1, §2

[11] = target: T5, Murine CD117, soluble (MuCD117 1-527); test: SPR Biacore 4000, captured antibody, soluble CD117 analyte
Procedure: as §3, §4, §5

[12] = target: T6, Mouse CD117, expressed on HEK293FS cells (mouse, UniProt P05532 25-979); test: flow cytometry on HEK293FS cells expressing mouse CD117, IgG1 format, signal of parental cells subtracted
T6 construct: The construct transfected is not further described; also called murine CD117
Procedure: as §1, §2

Chain of N-terminal domain of human CD117, soluble (HuCD117 1-308) (P10721 26-308): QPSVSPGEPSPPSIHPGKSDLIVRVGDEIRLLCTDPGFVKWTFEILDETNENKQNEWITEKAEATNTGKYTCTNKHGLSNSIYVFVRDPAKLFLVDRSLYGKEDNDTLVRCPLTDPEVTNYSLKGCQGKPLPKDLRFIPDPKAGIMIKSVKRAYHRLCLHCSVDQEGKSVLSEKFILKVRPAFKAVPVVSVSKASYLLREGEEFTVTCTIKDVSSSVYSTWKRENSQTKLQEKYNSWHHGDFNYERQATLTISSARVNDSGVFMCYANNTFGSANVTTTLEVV
T3 sequence (P10721 26-524): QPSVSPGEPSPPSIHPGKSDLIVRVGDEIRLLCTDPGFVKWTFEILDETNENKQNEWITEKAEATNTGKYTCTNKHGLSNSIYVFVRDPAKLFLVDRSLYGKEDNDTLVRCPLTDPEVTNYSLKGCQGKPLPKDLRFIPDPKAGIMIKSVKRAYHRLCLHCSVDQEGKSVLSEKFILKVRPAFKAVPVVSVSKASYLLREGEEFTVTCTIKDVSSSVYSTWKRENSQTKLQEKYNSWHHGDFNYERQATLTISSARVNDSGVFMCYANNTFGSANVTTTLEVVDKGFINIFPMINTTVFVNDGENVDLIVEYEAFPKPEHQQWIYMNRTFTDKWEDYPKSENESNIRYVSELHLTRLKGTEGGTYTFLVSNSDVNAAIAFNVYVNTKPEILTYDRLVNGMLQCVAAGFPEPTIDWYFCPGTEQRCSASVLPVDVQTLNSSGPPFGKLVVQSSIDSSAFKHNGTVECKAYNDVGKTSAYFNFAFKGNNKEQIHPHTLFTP

B2: hu4A2 IgG1 (hu4A2-hKG1) (antibody)
heavy: not shown
light: EIVLTQSPGTLSLSPGKRATLSCRASQSVSNSYLAWYQQKPGQPPKLLIYWASTRESGVPDRFSGSGSGTDFTLTISSLQAEDVAVYYCQQYYSTPLTFGGGTKVEIKRTVAAPSVFIFPPSDEQLKSGTASVVCLLNNFYPREAKVQWKVDNALQSGNSQESVTEQDSKDSTYSLSSTLTLSKADYEKHKVYACEVTHQGLSSPVTKSFNRGEC
notes: Human IgG1, kappa; also called hu4Aa
- EC50 (read off the curve) [1]: ~0.3 nM
- EC50 (read off the curve) [2]: ~0.5 nM
- EC50 (read off the curve) [3]: ~0.2 nM
- Kd [4]: 14.4 nM
- Kd [5]: 32.4 nM
- Kd [6]: 34.6 nM

B5: hu3B2 IgG1 (hu3B2-hLG1) (antibody)
heavy: not shown
light: SYELTQPPSVSVSPGQTATITCSGDKLGETYVHWYQHQSGQSPILVVYQDFKRPSGIPERFSGSNSGNTATLTISGTQAMDEADYYCQAWDSSTAVFGGGTKLTVLGQPKAAPSVTLFPPSSEELQANKATLVCLISDFYPGAVTVAWKADGSPVKAGVETTKPSKQSNNKYAASSYLSLTPEQWKSHRSYSCQVTHEGSTVEKTVAPTECS
notes: Human IgG1, lambda
- Kd [11]: > 1000 nM
- Kd [5]: 54.6 nM
- Kd [6]: 58.7 nM
- EC50 (read off the curve) [12]: ~0.3 nM

B6: hu3B2 IgA2 (hu3B2-hLhA2 (P221R)) (antibody)
heavy: QVQLQESGPGLVKPSETLSLTCTVSGYSISSGYYWGWIRQPPGKGLEWIGSIYHSGSTYYNPSLKSRVTISVDTSKNQFSLKLSSVTAADTAVYYCARVGVRYFDWLLYGAFDIWGQGTMVTVSSASPTSPKVFPLSLDSTPQDGNVVVACLVQGFFPQEPLSVTWSESGQNVTARNFPPSQDASGDLYTTSSQLTLPATQCPDGKSVTCHVKHYTNSSQDVTVPCRVPPPPPCCHPRLSLHRPALEDLLLGSEANLTCTLTGLRDASGATFTWTPSSGKSAVQGPPERDLCGCYSVSSVLPGCAQPWNHGETFTCTAAHPELKTPLTANITKSGNTFRPEVHLLPPPSEELALNELVTLTCLARGFSPKDVLVRWLQGSQELPREKYLTWASRQEPSQGTTTFAVTSILRVAAEDWKKGDTFSCMVGHEALPLAFTQKTIDRLAGKPTHVNVSVVMAEVDGTCY
light: B5 light
- Kd [11]: > 1000 nM
- Kd [5]: 35.9 nM
- Kd [6]: 39.9 nM

Now those with a lower Kd [5], led by results:

- fold gain in affinity (IgA2 backbone vs IgG1 or IgG4) [8]: ~2 fold
- fold gain in affinity (IgA2 backbone vs IgG1 or IgG4) [9]: ~10 fold
- Kd [4]: 8.61 nM
- Kd [5]: 18.6 nM
- Kd [6]: 3 nM
B3: hu4A2 IgA2 (hu4A2-hKhA2 (P221R)) (antibody)
heavy: EVQLLESGGGLVQPGGSLRLSCAASGFTFSDYGMSWVRQAPGKGLEWVSAIGYGGGGKYYADSVKGRFTISRDNSKNTLYLQMNSLRAEDTAVYYCAKDTWWLAGLFDYWGQGTLVTVSSASPTSPKVFPLSLDSTPQDGNVVVACLVQGFFPQEPLSVTWSESGQNVTARNFPPSQDASGDLYTTSSQLTLPATQCPDGKSVTCHVKHYTNSSQDVTVPCRVPPPPPCCHPRLSLHRPALEDLLLGSEANLTCTLTGLRDASGATFTWTPSSGKSAVQGPPERDLCGCYSVSSVLPGCAQPWNHGETFTCTAAHPELKTPLTANITKSGNTFRPEVHLLPPPSEELALNELVTLTCLARGFSPKDVLVRWLQGSQELPREKYLTWASRQEPSQGTTTFAVTSILRVAAEDWKKGDTFSCMVGHEALPLAFTQKTIDRLAGKPTHVNVSVVMAEVDGTCY
light: B2 light

- EC50 (read off the curve) [1]: ~0.3 nM
- EC50 (read off the curve) [2]: ~0.4 nM
- EC50 (read off the curve) [3]: ~0.2 nM
- Kd [4]: 4.14 nM
- Kd [5]: 14.4 nM
- Kd [6]: 33.7 nM
B1: hu3C2 IgG1 (hu3C2-hLG1) (antibody)
heavy: not shown
light: SYELTQDPAVSVALGQTVRITCQGDSLRDYYANWFQQKPGQAPLLVIFYDSDRPSGIPERFSGSNSGNTATLTISRVEAGDEADYYCQAWDSSSDHWVFGGGTKLTVLGQPKAAPSVTLFPPSSEELQANKATLVCLISDFYPGAVTVAWKADGSPVKAGVETTKPSKQSNNKYAASSYLSLTPEQWKSHRSYSCQVTHEGSTVEKTVAPTECS
notes: Human IgG1, lambda
- binding result [7]: no binding (tested: 200 nM (highest CD117 concentration))

- binding result [10]: binds
- EC50 (read off the curve) [3]: ~0.04 nM
- Kd [4]: 1.07 nM
- Kd [5]: 4.2 nM
- Kd [6]: 5.7 nM
B4: hu3B3 IgG1 (hu3B3-hLG1) (antibody)
heavy: not shown
light: SYELTQPPSVSVSPGQTASITCSGDKVGAKYVFWYQQKPGQSPVLVVYQDNKRPSGIPERFSGSNSGNTATLTISGTQAMDEADYYCQAWDSSTALYVFGTGTKVTVLGQPKANPTVTLFPPSSEELQANKATLVCLISDFYPGAVTVAWKADGSPVKAGVETTKPSKQSNNKYAASSYLSLTPEQWKSHRSYSCQVTHEGSTVEKTVAPTECS
notes: Human IgG1, lambda
- binding result [7]: no binding (tested: 200 nM (highest CD117 concentration))
